Test results: US20250320312A1 (OXITOPE PHARMA B V, published 2025)

T1: Peptide 4: Biotin-AGGGGSGGGGSGGGGSAAA-Tyr-acid (N-terminal biotin; C-terminal acid; no PC)
T1 construct: control peptide without PC
T1 peptide: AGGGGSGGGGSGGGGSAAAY

T2: Peptide 8: Biotin-AEAAAKEAAAKEAAAKEAAAKAAA-Tyr-acid (N-terminal biotin; C-terminal acid; no PC)
T2 construct: control peptide without PC
T2 peptide: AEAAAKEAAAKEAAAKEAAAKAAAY


Tests used:
Assay in all cases: scFv ELISA
BSA = BSA (UniProt P02769)
[1] = biological target: Peptide 1: Biotin-…-[Tyr(PC)]-acid
[2] = biological target: Peptide 5: Biotin-…-[Tyr(PC)]-acid
[3] = biological target: T1, Peptide 4: …
Summary of the method: (§1)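 Bound scFv was read as OD450 after HRP–anti-V5 detection, TMB development and HCl stop. PPE with BSA was incubated 1 h at RT on BSA-blocked wells coated overnight at 4° C. with peptide, or on streptavidin wells loaded 1 h with biotinylated PC-peptides at 1 μg/mL.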

[4] = biological target: T2, Peptide 8: …
Summary of the method: as §1

Chain of BSA (P02769 25-607 limits assumed): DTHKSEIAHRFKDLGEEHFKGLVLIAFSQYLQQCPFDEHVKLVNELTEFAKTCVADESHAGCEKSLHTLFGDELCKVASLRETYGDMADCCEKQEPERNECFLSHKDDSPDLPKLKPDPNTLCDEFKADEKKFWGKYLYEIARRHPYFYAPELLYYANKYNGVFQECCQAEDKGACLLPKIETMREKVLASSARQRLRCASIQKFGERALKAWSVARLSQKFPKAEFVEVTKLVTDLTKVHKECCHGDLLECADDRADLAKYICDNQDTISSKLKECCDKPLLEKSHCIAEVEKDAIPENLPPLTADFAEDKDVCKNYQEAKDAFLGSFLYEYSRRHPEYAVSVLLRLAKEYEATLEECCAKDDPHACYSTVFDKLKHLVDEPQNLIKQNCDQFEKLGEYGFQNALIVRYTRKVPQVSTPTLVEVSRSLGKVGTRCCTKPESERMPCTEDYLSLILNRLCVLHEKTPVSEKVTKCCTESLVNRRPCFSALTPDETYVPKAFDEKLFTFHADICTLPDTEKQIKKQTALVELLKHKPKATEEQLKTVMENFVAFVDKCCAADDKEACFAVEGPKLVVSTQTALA

OD450 (BSA) | OD450 [1] | OD450 [2] | OD450 [3] | OD450 [4] | Binder
0.07 OD450 | 0.97 OD450 | 1.58 OD450 | 0.04 OD450 | 0.04 OD450 | PcOxP_DB02_C12 (scFv, V domains shown, scFv in periplasmic extract) VH: EVQLLESGGGLVQPGGSLRLSCAASGFTFSDHYMEWVRQAPGKGLEWVAASRNKANDYTTEYADSVKGRFTISRDNSKNTLYLQMNSLRAEDTAVYYCARDYYGSSYWYFDVWGQGTLVTVSS VL: DIVMTQSPDSLAVSLGERATINCTASESLYSSKHKVHYLAWYQQKPGQPPKLLIYGAHNRYIGVPDRFSGSGSGTDFTLTISSLQAEDVAVYYCANFYSYPLTFGGGTKVEIK
0.06 OD450 | 0.64 OD450 | 0.92 OD450 | 0.04 OD450 | 0.04 OD450 | PcOxP_DB02_C05 (scFv, V domains shown, scFv in periplasmic extract) VH: EVQLLESGGGLVQPGGSLRLSCAASGFTASDFYMEWVRQAPGKGLEWVAASRNKANDYTTEYADSVKGRFTISRDNSKNTLYLQMNSLRAEDTAVYYCARDYYGSSYWYFDVWGQGTLVTVSS VL: DIVMTQSPDSLAVSLGERATINCTASESLYSSKHKVHYLAWYQQKPGQPPKLLIYGASNRYIGVPDRFSGSGSGTDFTLTISSLQAEDVAVYYCAQFYSYPLTFGGGTKVEIK
0.06 OD450 | 0.44 OD450 | 0.92 OD450 | 0.04 OD450 | 0.04 OD450 | PcOxP_DB02_C10 (scFv, V domains shown, scFv in periplasmic extract) VH: EVQLLESGGGLVQPGGSLRLSCAASGFTFSDYYMEWVRQAPGKGLEWVAASRNKANDYTTEYADSVKGRFTISRDNSKNTLYLQMNSLRAEDTAVYYCARDYYGSSYWYFDVWGQGTLVTVSS VL: DIVMTQSPDSLAVSLGERATINCTASESLYSSKHKVHYLAWYQQKPGQPPKLLIYGASNRYIGVPDRFSGSGSGTDFTLTISSLQAEDVAVYYCAQFYEYPLTFGGGTKVEIK
0.1 OD450 | 0.54 OD450 | 0.61 OD450 | 0.05 OD450 | 0.05 OD450 | PcOxP_DB02_C03 (scFv, V domains shown, scFv in periplasmic extract) VH: EVQLLESGGGLVQPGGSLRLSCAASGFTFSDYYMEWVRQAPGKGLEWVAASRWKANDYTTEYADSVKGRFTISRDNSKNTLYLQMNSLRAEDTAVYYCARDYYGSSYWYFDVWGQGTLVTVSS VL: DIVMTQSPDSLAVSLGERATINCTASESLYSSKHKVHYLAWYQQKPGQPPKLLIYGASNRYIGVPDRFSGSGSGTDFTLTISSLQAEDVAVYYCAQFYVYPLTFGGGTKVEIK
0.05 OD450 | 0.16 OD450 | 0.27 OD450 | 0.04 OD450 | 0.04 OD450 | PcOxP_DB02_D02 (scFv, V domains shown, scFv in periplasmic extract) VH: EVQLLESGGGLVQPGGSLRLSCAASGFTFSDYYMEWVRQAPGKGLEWVAASRNKANDYTTEYADSVKGRFTISRDNSKNTLYLQMNSLRAEDTAVYYCARDYYGSSYWYFDTWGQGTLVTVSS VL: DIVMTQSPDSLAVSLGERATINCTSSESVYSSSHKVHYLAWYQQKPGQPPKLLIYGASNRYIGVPDRFSGSGSGTDFTLTISSLQAEDVAVYYCAQFYYYPLTFGGGTKVEIK
0.08 OD450 | 0.42 OD450 | 0.71 OD450 | 0.04 OD450 | 0.04 OD450 | PcOxP_DB02_D03 (scFv, V domains shown, scFv in periplasmic extract) VH: EVQLLESGGGLVQPGGSLRLSCAASGFTQSDFYMEWVRQAPGKGLEWVAASRNKANAYTTEYADSVKGRFTISRDNSKNTLYLQMNSLRAEDTAVYYCARDYYGYSYWYFDVWGQGTLVTVSS VL: DIVMTQSPDSLAVSLGERATINCTASESLYSSKHKVHYLAWYQQKPGQPPKLLIYGNSNRYIGVPDRFSGSGSGTDFTLTISSLQAEDVAVYYCGQFYSYPLTFGGGTKVEIK
0.08 OD450 | 0.37 OD450 | 0.75 OD450 | 0.05 OD450 | 0.05 OD450 | PcOxP_DB02_C04 (scFv, V domains shown, scFv in periplasmic extract) VH: EVQLLESGGGLVQPGGSLRLSCAASGQTFSDFYMEWVRQAPGKGLEWVAASRNKANGYTTEYTDSVKGRFTISRDNSKNTLYLQMNSLRAEDTAVYYCARDYYGSSYWYFDVWGQGTLVTVSS VL: DIVMTQSPDSLAVSLGERATINCTASESLYSSKHKVHYLAWYQQKPGQPPKLLIYGANNRYIGVPDRFSGSGSGTDFTLTISSLQAEDVAVYYCAQFYSYPLTFGGGTKVEIK
0.06 OD450 | 0.22 OD450 | 0.39 OD450 | 0.06 OD450 | 0.04 OD450 | PcOxP_DB02_C08 (scFv, V domains shown, scFv in periplasmic extract) VH: EVQLLESGGGLVQPGGSLRLSCAASGFTFSDPYMEWVRQAPGKGLEWVAASRNKANDYTTEYADSVKGRFTISRDNSKNTLYLQMNSLRAEDTAVYYCARDYYGSPYWYFDVWGQGTLVTVSS VL: DIVMTQSPDSLAVSLGERATINCGASESLYSSKSKVHYLAWYQQKPGQPPKLLIYGASNRYIGVPDRFSGSGSGTDFTLTISSLQAEDVAVYYCAQFYSYPLTFGGGTKVEIK

The remaining lines, values behind:

Binder | OD450 (BSA) | OD450 [1] | OD450 [2] | OD450 [3] | OD450 [4]
PcOxP_DB01_H06 (scFv, V domains shown, scFv in periplasmic extract) VH: EVQLLESGGGLVQPGGSLRLSCAASGFTFSDFYMEWVRQAPGKGLEWVAASRNKGNSYTTAYADSVKGRFTISRDNSKNTLYLQMNSLRAEDTAVYYCARDYYGSSYWYFDVWGQGTLVTVSS VL: DIVMTQSPDSLAVSLGERATINCTASESLYSSKHKVHYLAWYQQKPGQPPKLLIYGASNRYDGVPDRFSGSGSGTDFTLTISSLQAEDVAVYYCANFYSYPLTFGGGTKVEIK | 0.11 OD450 | 0.96 OD450 | 1.79 OD450 | 0.05 OD450 | 0.07 OD450
PcOxP_DB02_B04 (scFv, V domains shown, scFv in periplasmic extract) VH: EVQLLESGGGLVQPGGSLRLSCAASGFTFSDYYMEWVRQAPGKGLEWVAASRNKWNDYTTEYADSVKGRFTISRDNSKNTLYLQMNSLRAEDTAVYYCARDYYGSSYWYFDVWGQGTLVTVSS VL: DIVMTQSPDSLAVSLGERATINCTASESLYSSKHKVHYLAWYQQKPGQPPKLLIYGASNRYIGVPDRFSGSGSGTDFTLTISSLQAEDVAVYYCAQFYSYPLTFGGGTKVEIK | 0.08 OD450 | 0.75 OD450 | 1.32 OD450 | 0.05 OD450 | 0.04 OD450
PcOxP_DB02_A04 (scFv, V domains shown, scFv in periplasmic extract) VH: EVQLLESGGGLVQPGGSLRLSCAASGDTFSDFYMEWVRQAPGKGLEWVAASRNKWNDYTTEYADSVKGRFTISRDNSKNTLYLQMNSLRAEDTAVYYCARDYYGSSYWYFDVWGQGTLVTVSS VL: DIVMTQSPDSLAVSLGERATINCTASESLYSSKHKVHYLAWYQQKPGQPPKLLIYGASNRYIGVPDRFSGSGSGTDFTLTISSLQAEDVAVYYCAQFYSYPLTFGGGTKVEIK | 0.09 OD450 | 0.33 OD450 | 0.82 OD450 | 0.04 OD450 | 0.04 OD450
PcOxP_DB02_B07 (scFv, V domains shown, scFv in periplasmic extract) VH: EVQLLESGGGLVQPGGSLRLSCAASGFTFSDQYMEWVRQAPGKGLEWVAASRNNANDYTTEYADSVKGRFTISRDNSKNTLYLQMNSLRAEDTAVYYCARDYYGSSYWYFDVWGQGTLVTVSS VL: DIVMTQSPDSLAVSLGERATINCTASESLYSSKHKVHYLAWYQQKPGQPPKLLIYGASNRQIGVPDRFSGSGSGTDFTLTISSLQAEDVAVYYCAQFYHYPLTFGGGTKVEIK | 0.06 OD450 | 0.4 OD450 | 0.77 OD450 | 0.04 OD450 | 0.04 OD450
PcOxP_DB02_A05 (scFv, V domains shown, scFv in periplasmic extract) VH: EVQLLESGGGLVQPGGSLRLSCAASGFTGSDFYMEWVRQAPGKGLEWVAASRNKWNDYTTEYADSVKGRFTISRDNSKNTLYLQMNSLRAEDTAVYYCARDYYGSSYWYFDVWGQGTLVTVSS VL: DIVMTQSPDSLAVSLGERATINCTASESLYSSKHKVHYLAWYQQKPGQPPKLLIYGAGNRYIGVPDRFSGSGSGTDFTLTISSLQAEDVAVYYCAQFYSYPLTFGGGTKVEIK | 0.07 OD450 | 0.99 OD450 | 1.24 OD450 | 0.05 OD450 | 0.04 OD450
